Non-standard residues stand in square brackets, D forms with d. No end group written: not given here. αMeF = C[C@](N)(Cc1ccccc1)C(=O)O; αMeK = C[C@](N)(CCCCN)C(=O)O; αMeS = C[C@](N)(CO)C(=O)O; Aib = CC(C)(N)C(=O)O
Experiments:
Assay in all cases: cell-based or functional assay
[1] = molecular target: GLP-1 receptor (human, UniProt P43220 24-463)
[2] = molecular target: glucagon receptor (human, UniProt P47871 26-477)
[3] = molecular target: T1, glucose-dependent insulinotropic peptide (gastric inhibitory polypeptide) receptor (human, UniProt P48546 22-466)
T1 sequence (looked up): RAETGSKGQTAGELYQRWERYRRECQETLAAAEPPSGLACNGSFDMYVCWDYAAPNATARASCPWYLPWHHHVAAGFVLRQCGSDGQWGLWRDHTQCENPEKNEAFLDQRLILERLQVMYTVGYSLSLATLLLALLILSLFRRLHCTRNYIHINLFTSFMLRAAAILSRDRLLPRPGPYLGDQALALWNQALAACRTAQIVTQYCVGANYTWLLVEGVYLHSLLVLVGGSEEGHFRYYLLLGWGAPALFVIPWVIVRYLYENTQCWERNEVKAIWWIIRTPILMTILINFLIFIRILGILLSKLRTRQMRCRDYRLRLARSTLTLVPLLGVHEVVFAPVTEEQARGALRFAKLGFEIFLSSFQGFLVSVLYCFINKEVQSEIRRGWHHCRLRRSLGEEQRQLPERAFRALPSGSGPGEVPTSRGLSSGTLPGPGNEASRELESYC

glucagon receptor, sequence (P47871 26-477): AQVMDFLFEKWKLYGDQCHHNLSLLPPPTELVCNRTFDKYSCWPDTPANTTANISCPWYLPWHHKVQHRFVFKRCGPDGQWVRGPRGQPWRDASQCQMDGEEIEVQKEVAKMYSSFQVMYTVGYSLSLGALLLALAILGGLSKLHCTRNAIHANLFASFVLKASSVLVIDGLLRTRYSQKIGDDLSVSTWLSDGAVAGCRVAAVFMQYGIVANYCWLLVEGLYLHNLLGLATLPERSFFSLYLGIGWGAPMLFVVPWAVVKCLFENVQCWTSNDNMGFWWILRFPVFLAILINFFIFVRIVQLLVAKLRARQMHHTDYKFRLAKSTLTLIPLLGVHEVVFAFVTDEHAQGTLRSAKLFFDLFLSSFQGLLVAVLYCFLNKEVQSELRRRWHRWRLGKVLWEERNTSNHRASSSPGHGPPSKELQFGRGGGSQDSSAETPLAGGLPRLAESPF

Binder | Primary assay EC50 (cAMP), Mean pM GLP-1R [1] [pM] | Primary assay EC50 (cAMP), n1 [1] [nM] | Primary assay EC50 (cAMP), n2 [1] [nM] | Primary assay EC50 (cAMP), n1 [2] [nM] | Primary assay EC50 (cAMP), n2 [2] [nM] | Primary assay EC50 (cAMP), n1 [3] [nM] | Primary assay EC50 (cAMP), n2 [3] [nM]
H[Aib]EGS[αMeF]TDDV[αMeS]S[αMeF]LEGEAA[αMeK]E[αMeF]IA[αMeF]VV[αMeK]GG-NH2 (N-terminus assumed; SMILES CC[C@H](C)[C@H](NC(=O)[C@](C)(Cc1ccccc1)NC(=O)[C@H](CCC(=O)O)NC(=O)[C@](C)(CCCCN)NC(=O)[C@H](C)NC(=O)[C@H](C)NC(=O)[C@H](CCC(=O)O)NC(=O)CNC(=O)[C@H](CCC(=O)O)NC(=O)[C@H](CC(C)C)NC(=O)[C@](C)(Cc1ccccc1)NC(=O)[C@H](CO)NC(=O)[C@](C)(CO)NC(=O)[C@@H](NC(=O)[C@H](CC(=O)O)NC(=O)[C@H](CC(=O)O)NC(=O)[C@@H](NC(=O)[C@](C)(Cc1ccccc1)NC(=O)[C@H](CO)NC(=O)CNC(=O)[C@H](CCC(=O)O)NC(=O)C(C)(C)NC(=O)[C@@H](N)Cc1c[nH]cn1)[C@@H](C)O)C(C)C)C(=O)N[C@@H](C)C(=O)N[C@@](C)(Cc1ccccc1)C(=O)N[C@H](C(=O)N[C@H](C(=O)N[C@@](C)(CCCCN)C(=O)NCC(=O)NCC(N)=O)C(C)C)C(C)C) [SEQ ID NO 27] | 446 | 0.42 | 0.48 | 100 | 40 | 100 | 100
H[Aib]EGS[αMeF]TEDV[αMeS]S[αMeF]LEGEAA[αMeK]E[αMeF]IA[αMeF]VV[αMeK]GG-NH2 (N-terminus assumed; SMILES CC[C@H](C)[C@H](NC(=O)[C@](C)(Cc1ccccc1)NC(=O)[C@H](CCC(=O)O)NC(=O)[C@](C)(CCCCN)NC(=O)[C@H](C)NC(=O)[C@H](C)NC(=O)[C@H](CCC(=O)O)NC(=O)CNC(=O)[C@H](CCC(=O)O)NC(=O)[C@H](CC(C)C)NC(=O)[C@](C)(Cc1ccccc1)NC(=O)[C@H](CO)NC(=O)[C@](C)(CO)NC(=O)[C@@H](NC(=O)[C@H](CC(=O)O)NC(=O)[C@H](CCC(=O)O)NC(=O)[C@@H](NC(=O)[C@](C)(Cc1ccccc1)NC(=O)[C@H](CO)NC(=O)CNC(=O)[C@H](CCC(=O)O)NC(=O)C(C)(C)NC(=O)[C@@H](N)Cc1c[nH]cn1)[C@@H](C)O)C(C)C)C(=O)N[C@@H](C)C(=O)N[C@@](C)(Cc1ccccc1)C(=O)N[C@H](C(=O)N[C@H](C(=O)N[C@@](C)(CCCCN)C(=O)NCC(=O)NCC(N)=O)C(C)C)C(C)C) [SEQ ID NO 28] | 4620 | 4.6 | 4.7 | 100 | 100 | 100 | 100
H[Aib]EGS[αMeF]TADV[αMeS]S[αMeF]LEGEAA[αMeK]E[αMeF]IA[αMeF]VV[αMeK]GG-NH2 (N-terminus assumed; SMILES CC[C@H](C)[C@H](NC(=O)[C@](C)(Cc1ccccc1)NC(=O)[C@H](CCC(=O)O)NC(=O)[C@](C)(CCCCN)NC(=O)[C@H](C)NC(=O)[C@H](C)NC(=O)[C@H](CCC(=O)O)NC(=O)CNC(=O)[C@H](CCC(=O)O)NC(=O)[C@H](CC(C)C)NC(=O)[C@](C)(Cc1ccccc1)NC(=O)[C@H](CO)NC(=O)[C@](C)(CO)NC(=O)[C@@H](NC(=O)[C@H](CC(=O)O)NC(=O)[C@H](C)NC(=O)[C@@H](NC(=O)[C@](C)(Cc1ccccc1)NC(=O)[C@H](CO)NC(=O)CNC(=O)[C@H](CCC(=O)O)NC(=O)C(C)(C)NC(=O)[C@@H](N)Cc1c[nH]cn1)[C@@H](C)O)C(C)C)C(=O)N[C@@H](C)C(=O)N[C@@](C)(Cc1ccccc1)C(=O)N[C@H](C(=O)N[C@H](C(=O)N[C@@](C)(CCCCN)C(=O)NCC(=O)NCC(N)=O)C(C)C)C(C)C) [SEQ ID NO 26] | 123 | 0.099 | 0.15 | 100 | 30 | 100 | 100
H[Aib]EGS[αMeF]TTDV[αMeS]S[αMeF]LEGEAA[αMeK]E[αMeF]IA[αMeF]VV[αMeK]GG-NH2 (N-terminus assumed; SMILES CC[C@H](C)[C@H](NC(=O)[C@](C)(Cc1ccccc1)NC(=O)[C@H](CCC(=O)O)NC(=O)[C@](C)(CCCCN)NC(=O)[C@H](C)NC(=O)[C@H](C)NC(=O)[C@H](CCC(=O)O)NC(=O)CNC(=O)[C@H](CCC(=O)O)NC(=O)[C@H](CC(C)C)NC(=O)[C@](C)(Cc1ccccc1)NC(=O)[C@H](CO)NC(=O)[C@](C)(CO)NC(=O)[C@@H](NC(=O)[C@H](CC(=O)O)NC(=O)[C@@H](NC(=O)[C@@H](NC(=O)[C@](C)(Cc1ccccc1)NC(=O)[C@H](CO)NC(=O)CNC(=O)[C@H](CCC(=O)O)NC(=O)C(C)(C)NC(=O)[C@@H](N)Cc1c[nH]cn1)[C@@H](C)O)[C@@H](C)O)C(C)C)C(=O)N[C@@H](C)C(=O)N[C@@](C)(Cc1ccccc1)C(=O)N[C@H](C(=O)N[C@H](C(=O)N[C@@](C)(CCCCN)C(=O)NCC(=O)NCC(N)=O)C(C)C)C(C)C) [SEQ ID NO 29] | 801 | 0.78 | 0.82 | 100 | 100 | 100 | 100
H[Aib]EGS[αMeF]TGDV[αMeS]S[αMeF]LEGEAA[αMeK]E[αMeF]IA[αMeF]VV[αMeK]GG-NH2 (N-terminus assumed; SMILES CC[C@H](C)[C@H](NC(=O)[C@](C)(Cc1ccccc1)NC(=O)[C@H](CCC(=O)O)NC(=O)[C@](C)(CCCCN)NC(=O)[C@H](C)NC(=O)[C@H](C)NC(=O)[C@H](CCC(=O)O)NC(=O)CNC(=O)[C@H](CCC(=O)O)NC(=O)[C@H](CC(C)C)NC(=O)[C@](C)(Cc1ccccc1)NC(=O)[C@H](CO)NC(=O)[C@](C)(CO)NC(=O)[C@@H](NC(=O)[C@H](CC(=O)O)NC(=O)CNC(=O)[C@@H](NC(=O)[C@](C)(Cc1ccccc1)NC(=O)[C@H](CO)NC(=O)CNC(=O)[C@H](CCC(=O)O)NC(=O)C(C)(C)NC(=O)[C@@H](N)Cc1c[nH]cn1)[C@@H](C)O)C(C)C)C(=O)N[C@@H](C)C(=O)N[C@@](C)(Cc1ccccc1)C(=O)N[C@H](C(=O)N[C@H](C(=O)N[C@@](C)(CCCCN)C(=O)NCC(=O)NCC(N)=O)C(C)C)C(C)C) [SEQ ID NO 25] | 544 | 0.5 | 0.59 | 100 | 22 | 100 | 100
